Target: Type V collagen from human placenta (human) (UniProt P20908)
Assay: ELISA; type V collagen coated on 96-well plates (10 ug/ml in carbonate coating buffer, overnight 4 °C), blocked with 0.5 % BSA in TBS; about 1.0x10^8 whole bacteria per well, 1 h at 37 °C; adhered bacteria detected with anti-serotype a or anti-serotype b whole-cell polyclonal antibody and HRP secondary; activity normalised to a reference strain set at 100 %

Sequence of UniProt P20908 (P20908 38-1605, chain 1 of 2): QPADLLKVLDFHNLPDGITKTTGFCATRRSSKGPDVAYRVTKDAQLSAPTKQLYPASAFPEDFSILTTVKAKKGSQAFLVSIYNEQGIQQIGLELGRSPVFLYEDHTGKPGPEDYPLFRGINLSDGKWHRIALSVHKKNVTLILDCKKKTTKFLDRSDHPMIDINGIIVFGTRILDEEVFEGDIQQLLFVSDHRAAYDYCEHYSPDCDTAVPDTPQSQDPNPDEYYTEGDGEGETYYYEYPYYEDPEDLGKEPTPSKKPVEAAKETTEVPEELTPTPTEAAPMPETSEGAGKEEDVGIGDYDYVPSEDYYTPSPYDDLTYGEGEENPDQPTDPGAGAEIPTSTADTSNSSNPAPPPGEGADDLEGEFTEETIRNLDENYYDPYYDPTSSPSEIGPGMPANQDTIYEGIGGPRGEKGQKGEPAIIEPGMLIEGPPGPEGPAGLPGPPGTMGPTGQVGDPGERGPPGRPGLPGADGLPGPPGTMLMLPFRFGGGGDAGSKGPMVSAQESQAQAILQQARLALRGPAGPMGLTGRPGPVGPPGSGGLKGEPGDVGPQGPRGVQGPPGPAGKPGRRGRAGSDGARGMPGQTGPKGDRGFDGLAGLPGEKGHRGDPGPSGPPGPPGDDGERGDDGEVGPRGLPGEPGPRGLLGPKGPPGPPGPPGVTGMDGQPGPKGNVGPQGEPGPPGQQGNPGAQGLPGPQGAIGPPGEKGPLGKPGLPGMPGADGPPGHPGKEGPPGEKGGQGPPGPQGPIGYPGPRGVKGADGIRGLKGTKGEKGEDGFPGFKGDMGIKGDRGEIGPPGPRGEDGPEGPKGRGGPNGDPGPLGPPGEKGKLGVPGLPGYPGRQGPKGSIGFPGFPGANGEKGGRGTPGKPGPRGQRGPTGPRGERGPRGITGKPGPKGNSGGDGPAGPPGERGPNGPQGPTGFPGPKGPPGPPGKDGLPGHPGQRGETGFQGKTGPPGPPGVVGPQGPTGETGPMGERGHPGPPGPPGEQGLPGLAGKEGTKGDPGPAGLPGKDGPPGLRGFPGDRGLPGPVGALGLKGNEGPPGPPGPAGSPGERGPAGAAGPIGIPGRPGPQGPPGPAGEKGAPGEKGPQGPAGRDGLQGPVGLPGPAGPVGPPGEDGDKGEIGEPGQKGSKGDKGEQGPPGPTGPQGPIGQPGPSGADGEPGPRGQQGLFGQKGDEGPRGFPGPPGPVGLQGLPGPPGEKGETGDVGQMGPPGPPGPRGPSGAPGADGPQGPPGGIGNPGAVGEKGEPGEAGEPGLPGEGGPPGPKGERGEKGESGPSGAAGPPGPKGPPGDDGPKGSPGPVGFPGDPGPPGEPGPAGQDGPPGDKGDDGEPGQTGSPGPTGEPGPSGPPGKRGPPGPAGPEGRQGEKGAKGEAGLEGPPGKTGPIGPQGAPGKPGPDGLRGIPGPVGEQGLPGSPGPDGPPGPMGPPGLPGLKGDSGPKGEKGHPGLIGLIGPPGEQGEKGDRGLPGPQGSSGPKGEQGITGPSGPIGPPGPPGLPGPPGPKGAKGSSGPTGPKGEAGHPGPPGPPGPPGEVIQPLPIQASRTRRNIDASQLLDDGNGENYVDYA
Sequence of UniProt P20908 (P05997 27-1229, chain 2 of 2, further chain): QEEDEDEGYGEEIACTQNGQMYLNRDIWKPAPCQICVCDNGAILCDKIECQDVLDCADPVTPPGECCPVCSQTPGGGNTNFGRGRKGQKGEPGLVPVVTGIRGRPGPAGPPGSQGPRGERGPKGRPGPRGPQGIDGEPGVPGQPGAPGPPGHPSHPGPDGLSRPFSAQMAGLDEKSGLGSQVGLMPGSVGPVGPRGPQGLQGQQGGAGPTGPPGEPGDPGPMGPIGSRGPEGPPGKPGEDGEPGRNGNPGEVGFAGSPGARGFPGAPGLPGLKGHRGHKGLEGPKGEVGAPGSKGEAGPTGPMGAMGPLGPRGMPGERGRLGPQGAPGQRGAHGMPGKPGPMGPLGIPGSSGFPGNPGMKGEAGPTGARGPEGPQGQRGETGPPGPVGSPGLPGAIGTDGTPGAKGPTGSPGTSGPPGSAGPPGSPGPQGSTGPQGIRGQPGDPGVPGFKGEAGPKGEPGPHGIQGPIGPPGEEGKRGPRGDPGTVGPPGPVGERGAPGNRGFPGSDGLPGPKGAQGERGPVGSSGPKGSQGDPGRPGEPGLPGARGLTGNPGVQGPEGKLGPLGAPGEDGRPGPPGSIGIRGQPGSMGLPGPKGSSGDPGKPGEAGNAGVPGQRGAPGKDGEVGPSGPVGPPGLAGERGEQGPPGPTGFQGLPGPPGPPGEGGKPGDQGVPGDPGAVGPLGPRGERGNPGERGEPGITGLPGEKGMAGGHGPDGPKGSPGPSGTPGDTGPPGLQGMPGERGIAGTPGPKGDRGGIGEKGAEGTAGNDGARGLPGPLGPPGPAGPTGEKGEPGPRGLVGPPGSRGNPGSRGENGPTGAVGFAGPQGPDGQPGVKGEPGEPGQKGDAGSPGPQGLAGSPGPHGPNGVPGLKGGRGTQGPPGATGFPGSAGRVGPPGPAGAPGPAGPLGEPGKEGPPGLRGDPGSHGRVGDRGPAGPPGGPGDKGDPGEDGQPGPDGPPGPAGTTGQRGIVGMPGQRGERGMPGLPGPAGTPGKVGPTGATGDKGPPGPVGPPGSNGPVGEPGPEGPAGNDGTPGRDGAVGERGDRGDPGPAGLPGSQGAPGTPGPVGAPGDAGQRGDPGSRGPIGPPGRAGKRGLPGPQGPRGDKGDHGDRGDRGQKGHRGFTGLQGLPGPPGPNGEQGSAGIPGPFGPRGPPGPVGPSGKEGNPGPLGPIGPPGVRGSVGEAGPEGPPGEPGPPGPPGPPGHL

a-EmaA (extracellular matrix protein adhesin A, 173 kDa isoform of serotype a) expressed from pKM753 in strain ATCC 29523 (natural protein)
fold increase in collagen binding over the emaA mutant strain ATCC 29523: > 2 fold

a-EmaA expressed from a plasmid in the serotype b O-PS-deficient rmlC mutant strain (natural protein)
fold increase in collagen binding over the rmlC mutant strain: 4.6 fold
fold of the collagen binding of the serotype b wild-type strain: > 2 fold
